Here are results for 2 molecules from PMC2860808 (Biochemical Journal, 2010).

For data set [1], the target named is T1, SPP–myc (signal peptide peptidase, myc-tagged) (human), Q8TCT9.
T1 chain: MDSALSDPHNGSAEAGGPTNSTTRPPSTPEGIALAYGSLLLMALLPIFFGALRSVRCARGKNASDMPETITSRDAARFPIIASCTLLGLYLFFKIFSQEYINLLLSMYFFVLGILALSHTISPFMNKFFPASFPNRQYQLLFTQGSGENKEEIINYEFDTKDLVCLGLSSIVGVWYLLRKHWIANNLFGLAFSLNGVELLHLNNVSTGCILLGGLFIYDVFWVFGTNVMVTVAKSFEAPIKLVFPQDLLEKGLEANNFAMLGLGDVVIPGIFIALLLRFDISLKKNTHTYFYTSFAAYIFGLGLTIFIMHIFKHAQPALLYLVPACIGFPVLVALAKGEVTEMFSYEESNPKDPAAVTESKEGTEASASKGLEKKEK
The data set is described as follows: SDS/PAGE. Conditions: remark: other sources report otherwise.

The data set “native gel or EMSA” concerns the molecule itself. In words: native gel or EMSA.

B1: SPP–myc (signal peptide peptidase, myc-tagged), Q8TCT9 1-377 (enzyme)
chain: MDSALSDPHNGSAEAGGPTNSTTRPPSTPEGIALAYGSLLLMALLPIFFGALRSVRCARGKNASDMPETITSRDAARFPIIASCTLLGLYLFFKIFSQEYINLLLSMYFFVLGILALSHTISPFMNKFFPASFPNRQYQLLFTQGSGENKEEIINYEFDTKDLVCLGLSSIVGVWYLLRKHWIANNLFGLAFSLNGVELLHLNNVSTGCILLGGLFIYDVFWVFGTNVMVTVAKSFEAPIKLVFPQDLLEKGLEANNFAMLGLGDVVIPGIFIALLLRFDISLKKNTHTYFYTSFAAYIFGLGLTIFIMHIFKHAQPALLYLVPACIGFPVLVALAKGEVTEMFSYEESNPKDPAAVTESKEGTEASASKGLEKKEK
In turn, B1 had a stoichiometry N in data set [1] of 2.

B2: SPP^D/A–myc (SPP-D265A, catalytically inactive, myc-tagged) (enzyme)
chain: MDSALSDPHNGSAEAGGPTNSTTRPPSTPEGIALAYGSLLLMALLPIFFGALRSVRCARGKNASDMPETITSRDAARFPIIASCTLLGLYLFFKIFSQEYINLLLSMYFFVLGILALSHTISPFMNKFFPASFPNRQYQLLFTQGSGENKEEIINYEFDTKDLVCLGLSSIVGVWYLLRKHWIANNLFGLAFSLNGVELLHLNNVSTGCILLGGLFIYDVFWVFGTNVMVTVAKSFEAPIKLVFPQDLLEKGLEANNFAMLGLGAVVIPGIFIALLLRFDISLKKNTHTYFYTSFAAYIFGLGLTIFIMHIFKHAQPALLYLVPACIGFPVLVALAKGEVTEMFSYEESNPKDPAAVTESKEGTEASASKGLEKKEK
As to B2, the “stoichiometry N” value in “native gel or EMSA” worked out at 2.
